B1: SPATS1 (parent)
chain: GRKKYDIDPRNGIPKLTPGDNPYM

Variants of: B1
Assay: protein stability index of a GFP-peptide fusion (GPS, HEK-293T) (PSI 1-6); higher = more stable
Details: c terminus: a fixed tail appended
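Note: lentivirally expressed fusions sorted by FACS into six bins by GFP to DsRed ratio, PSI derived from sequencing read proportions per bin multiplied by bin number.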

Variant | protein stability index
N11R | 3.28
N11Q | 3.41
N11L | 3.06
N11D | 3.87
N11G | 3.53
N11W | 2.48
N11K | 3.59
N11S | 3.6
N11A | 3.05
N11T | 3.46
N11P | 3.8
N11Y | 4.13
N11F | 3.34
R10H | 3.4
R10M | 3.03
R10T | 3.81
R10A | 3.48
R10E | 4.19
R10F | 2.7
R10Y | 3.1
R10V | 2.8
R10C | 3.77
R10P | 3.29
N21F | 2.78

Variant | protein stability index
N21Q | 3.67
N21C | 3.34
N21Y | 3.06
N21K | 3.51
N21M | 3.32
N21D | 4.23
N21L | 2.88
N21I | 3.5
N21H | 3.33
N21T | 3.46
N21R | 3.41
N21G | 3.96
N21A | 3.84
K3R | 3.27
K3T | 3.73
K3G | 3.53
K3N | 3.32
K3A | 3.2
K3L | 3.19
K3I | 3.39
K3M | 3.2
K3E | 3.79
K3D | 4.24
K3H | 3.67

Variant | protein stability index
G1K | 3.25
G1E | 3.96
G1S | 3.65
G1V | 3.68
G1L | 2.96
G1A | 3.48
G1T | 3.4
G1Q | 3.52
G1C | 2.83
G1F | 2.88
G1M | 3.12
G1Y | 3.31
I7S | 4.25
I7E | 4.5
I7R | 4.22
I7G | 4.08
I7D | 4.21
I7C | 3.93
I7W | 2.91
I7M | 2.98
I7K | 4.19
D6A | 3.26
D6Q | 2.94
D6V | 2.52

Variant | protein stability index
D6W | 2.38
D6Y | 3.12
D6T | 3.16
D6G | 3.51
D6N | 3.36
D6E | 3.4
D6C | 2.89
L16C | 3.44
L16D | 4.11
L16H | 3.75
L16W | 2.67
L16Y | 3.22
L16K | 3.53
L16I | 3.47
L16A | 4.09
L16P | 3.67
L16N | 4.24
L16R | 3.59
L16Q | 4.08
D8I | 3.08
D8R | 3.08
D8P | 3.42
D8F | 2.84
D8C | 3.1

Variant | protein stability index
D8T | 3.56
D8V | 3.08
D8A | 3.02
D8Y | 2.68
D8E | 3.72
D8N | 3.12
D8M | 3.18
Y23M | 3.82
Y23F | 3.37
Y23Q | 4.56
Y23D | 4.84
Y23S | 3.94
Y23R | 4.34
Y23E | 4.61
Y23P | 4.41
Y23W | 3.05
Y23V | 4.18
Y23T | 4.6
Y23K | 4.41
Y23A | 4.3
I13E | 4.45
I13P | 3.86
I13V | 3.82
I13S | 3.88

Variant | protein stability index
I13H | 4.04
I13C | 3.82
I13T | 3.72
I13Q | 3.68
I13W | 3.44
I13N | 4.1
I13F | 3.99
G19C | 3.21
G19Q | 3.35
G19W | 2.3
G19E | 4.69
G19D | 3.83
G19T | 3.59
G19A | 3.32
G19P | 3.73
G19N | 3.76
G19V | 2.88
G19Y | 2.79
G19I | 3.28
G19L | 3.44
R2D | 4.13
R2F | 3.4
R2M | 3.37
R2A | 3.51

Variant | protein stability index
R2N | 3.44
R2L | 3.12
P22K | 3.89
P22M | 3.37
P22A | 4.01
P22Q | 3.98
P22G | 3.53
P22N | 3.64
P22F | 3.02
P22S | 3.54
P22L | 3.31
P22R | 4.22
P22E | 3.85
P22T | 4.01
P22H | 3.74
P22W | 2.62
P14W | 2.9
P14Q | 3.42
P14L | 2.94
P14F | 2.4
P14V | 3.36
P14K | 3.44
P14E | 4.16

Source: the supplement of paper PMC10567573
